{
  "source": "paper PMC4364404",
  "molecular_target": "T1, NgTet1 (Naegleria gruberi, UniProt D2W6T1 1-321)",
  "T1 sequence": "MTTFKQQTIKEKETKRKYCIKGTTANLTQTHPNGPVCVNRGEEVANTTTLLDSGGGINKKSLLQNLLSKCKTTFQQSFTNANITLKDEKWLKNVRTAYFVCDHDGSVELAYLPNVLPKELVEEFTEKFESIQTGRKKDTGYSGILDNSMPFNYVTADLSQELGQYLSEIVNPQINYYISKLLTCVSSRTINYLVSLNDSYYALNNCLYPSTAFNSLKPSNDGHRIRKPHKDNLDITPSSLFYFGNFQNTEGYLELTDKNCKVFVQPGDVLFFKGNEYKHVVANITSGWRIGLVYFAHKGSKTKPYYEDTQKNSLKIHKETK",
  "test": "X-ray crystallography",
  "data": [
    {"binder": "14-bp fully methylated CpG DNA (dsDNA, 5mC at position 6 of strand 1 and position 8 of strand 2) DNA 1: TGGAACGCAATTCT DNA 2: AGAATTGCGTTCCA", "values": [
      {"measurement": "binding result", "result": "binds"}
    ]}
  ]
}
